Positions count from the first letter of the chain named.
Tests used:
Conditions in all cases: nanopore translocation; background mutations not given
[1] = target: T1, Dda 1993 K177H K177H (Enterobacteria phage T4) (UniProt P32270)
T1 sequence: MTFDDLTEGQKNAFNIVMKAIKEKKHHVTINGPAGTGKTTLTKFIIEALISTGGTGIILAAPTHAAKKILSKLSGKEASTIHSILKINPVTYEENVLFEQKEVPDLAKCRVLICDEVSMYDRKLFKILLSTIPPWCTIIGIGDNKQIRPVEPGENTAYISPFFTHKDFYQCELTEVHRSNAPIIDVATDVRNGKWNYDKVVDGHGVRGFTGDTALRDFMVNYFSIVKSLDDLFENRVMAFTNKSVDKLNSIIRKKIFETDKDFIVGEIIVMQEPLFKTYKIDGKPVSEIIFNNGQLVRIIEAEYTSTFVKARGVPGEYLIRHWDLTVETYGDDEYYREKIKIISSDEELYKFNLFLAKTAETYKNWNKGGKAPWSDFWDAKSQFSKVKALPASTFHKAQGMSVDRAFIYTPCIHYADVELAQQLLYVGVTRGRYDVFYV

[2] = target: T2, Dda 1993 K177N K177N (Enterobacteria phage T4) (UniProt P32270)
T2 sequence: T1 sequence with H177N

[3] = target: T3, Dda 1993 K177T K177T (Enterobacteria phage T4) (UniProt P32270)
T3 sequence: T1 sequence with H177T

[4] = target: T4, Dda 1993 K177V K177V (Enterobacteria phage T4) (UniProt P32270)
T4 sequence: T1 sequence with H177V

[5] = target: T5, Dda 1993 C114L C114L (Enterobacteria phage T4) (UniProt P32270)
T5 sequence: T1 sequence with C114L, H177K

[6] = target: T6, Dda 1993 C114V C114V (Enterobacteria phage T4) (UniProt P32270)
T6 sequence: T1 sequence with C114V, H177K

## barcoded 3.6 kb DNA analyte ligated to sequencing Y adaptor
[1]
  activity (bps speed delta vs control): 10.6
[2]
  activity (bps speed delta vs control): 2.4
[3]
  activity (bps speed delta vs control): 22.6
[4]
  activity (bps speed delta vs control): -16
[5]
  activity (bps speed delta vs control): -42
[6]
  activity (bps speed delta vs control): 26

From patent US20250382602
